Results: US20090186036A1

Columns and labels:
[1] = molecular target: soluble recombinant human αvβ6 (human) (UniProt P06756); test: biotin-hsαvβ6 to coated LAP, blocking
[2] = molecular target: soluble recombinant human αvβ6 (human) (UniProt P06756); test: ELISA, coated hsαvβ6
[3] = molecular target: soluble recombinant human αvβ6 (human) (UniProt P06756); test: ELISA on plate-bound soluble αvβ6 in EDTA (10 mM) [panel F]
[4] = molecular target: soluble recombinant human αvβ6 (human) (UniProt P06756); test: ELISA on plate-bound soluble αvβ6 in Mn (1 mM MnCl2) [panel F]
[5] = molecular target: soluble recombinant human αvβ6 (human) (UniProt P06756); test: ELISA on plate-bound soluble αvβ6 in Ca/Mg [panel F]
[6] = molecular target: soluble recombinant human αvβ6 (human) (UniProt P06756); test: KinExA, solution affinity for soluble αvβ6
[7] = molecular target: soluble recombinant human αvβ6 (human) (UniProt P06756); test: ELISA on plate-bound soluble αvβ6 in Ca/Mg [panel B]
[8] = molecular target: αvβ6 of human tumor cells and tissues (Detroit 562 cells, SCC-14 cells, carcinoma sections) (human) (UniProt P06756); test: adhesion of Detroit562 cells to LAP, % binding; blocked ligand LAP [Detroit562 panel]
[9] = molecular target: soluble recombinant human αvβ6 (human) (UniProt P06756); test: ELISA on plate-bound soluble αvβ6 in EDTA (10 mM) [panel B]
[10] = molecular target: αvβ6 on β6-transfected SW480 cells (UniProt P06756); test: cell-based or functional assay
[11] = molecular target: αvβ6 on β6-transfected FDC-P1 cells (murine) (UniProt P43406); test: β6-FDC-P1 cells to coated LAP, blocking
αvβ6 on β6-transfected FDC-P1 cells (murine), sequence (P43406 31-1044, chain 1 of 2): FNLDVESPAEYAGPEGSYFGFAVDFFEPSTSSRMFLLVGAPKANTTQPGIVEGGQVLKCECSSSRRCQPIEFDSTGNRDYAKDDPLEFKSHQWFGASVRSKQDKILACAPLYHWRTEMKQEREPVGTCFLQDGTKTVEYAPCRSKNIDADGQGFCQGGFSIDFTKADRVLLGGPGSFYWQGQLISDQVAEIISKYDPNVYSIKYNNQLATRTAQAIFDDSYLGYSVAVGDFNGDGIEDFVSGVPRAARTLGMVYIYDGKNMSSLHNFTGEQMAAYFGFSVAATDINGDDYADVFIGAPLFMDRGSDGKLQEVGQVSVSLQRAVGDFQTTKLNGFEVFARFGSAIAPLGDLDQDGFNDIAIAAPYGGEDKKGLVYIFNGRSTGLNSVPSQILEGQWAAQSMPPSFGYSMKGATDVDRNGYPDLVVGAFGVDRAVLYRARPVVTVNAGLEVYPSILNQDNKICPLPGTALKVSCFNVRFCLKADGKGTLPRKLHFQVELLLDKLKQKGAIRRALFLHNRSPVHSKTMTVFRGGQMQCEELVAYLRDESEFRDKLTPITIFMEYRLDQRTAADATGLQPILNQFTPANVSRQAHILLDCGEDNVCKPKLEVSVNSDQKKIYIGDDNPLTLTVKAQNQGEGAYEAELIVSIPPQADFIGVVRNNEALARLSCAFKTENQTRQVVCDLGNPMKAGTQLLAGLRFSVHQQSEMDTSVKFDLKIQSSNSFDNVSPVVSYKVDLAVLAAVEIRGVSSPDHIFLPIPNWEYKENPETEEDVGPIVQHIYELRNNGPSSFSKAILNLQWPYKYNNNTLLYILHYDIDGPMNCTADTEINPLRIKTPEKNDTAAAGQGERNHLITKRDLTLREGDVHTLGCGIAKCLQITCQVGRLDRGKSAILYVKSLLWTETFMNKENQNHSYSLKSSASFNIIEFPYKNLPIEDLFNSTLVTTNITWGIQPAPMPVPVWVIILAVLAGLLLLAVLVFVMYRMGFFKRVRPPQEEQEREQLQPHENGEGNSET
αvβ6 on β6-transfected FDC-P1 cells (murine), sequence (Q9Z0T9 22-787, chain 2 of 2, further chain): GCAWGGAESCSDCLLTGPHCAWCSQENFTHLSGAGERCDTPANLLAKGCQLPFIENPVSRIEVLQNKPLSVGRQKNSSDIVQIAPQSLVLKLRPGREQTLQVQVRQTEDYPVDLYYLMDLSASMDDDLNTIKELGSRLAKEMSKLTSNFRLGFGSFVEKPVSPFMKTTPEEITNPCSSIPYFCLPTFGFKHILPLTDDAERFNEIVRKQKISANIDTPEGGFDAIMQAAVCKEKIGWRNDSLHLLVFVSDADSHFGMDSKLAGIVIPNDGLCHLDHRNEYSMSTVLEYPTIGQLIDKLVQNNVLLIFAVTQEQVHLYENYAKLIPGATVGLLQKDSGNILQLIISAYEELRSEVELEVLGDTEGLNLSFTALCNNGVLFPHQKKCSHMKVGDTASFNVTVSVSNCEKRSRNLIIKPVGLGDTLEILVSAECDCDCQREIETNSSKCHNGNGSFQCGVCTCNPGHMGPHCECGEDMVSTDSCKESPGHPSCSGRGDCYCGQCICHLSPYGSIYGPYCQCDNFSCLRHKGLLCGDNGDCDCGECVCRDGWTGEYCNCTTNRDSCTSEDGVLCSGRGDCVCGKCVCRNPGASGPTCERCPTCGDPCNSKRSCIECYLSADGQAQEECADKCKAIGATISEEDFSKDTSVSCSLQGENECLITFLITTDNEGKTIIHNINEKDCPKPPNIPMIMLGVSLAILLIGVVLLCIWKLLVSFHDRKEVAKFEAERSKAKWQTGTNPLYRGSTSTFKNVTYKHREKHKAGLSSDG

[12] = molecular target: αvβ6 on β6-transfected SW480 cells (UniProt P06756); test: adhesion of SW480β6 cells to LAP, % binding; blocked ligand LAP [SW480β6 panel]
[13] = molecular target: soluble recombinant human αvβ6 (human) (UniProt P06756); test: ELISA on plate-bound soluble αvβ6 in Mn (1 mM MnCl2) [panel B]
[14] = molecular target: αvβ6 on β6-transfected FDC-P1 cells (murine) (UniProt P43406); test: adhesion of labelled β6-transfected FDC-P1 cells to plate-bound LAP, % binding; blocked ligand LAP
[15] = molecular target: soluble recombinant human αvβ6 (human) (UniProt P06756); test: ELISA on plate-bound soluble αvβ6 in Ca/Mg [panel C]
[16] = molecular target: soluble recombinant human αvβ6 (human) (UniProt P06756); test: KinExA, solution affinity for soluble αvβ6, with CaCl2 and MgCl2
[17] = molecular target: αvβ6 on β6-transfected FDC-P1 cells (murine) (UniProt P43406); test: adhesion of labelled β6-transfected FDC-P1 cells to plate-bound LAP, % binding; blocked ligand LAP; remark: listed apart in the source
[18] = molecular target: soluble recombinant human αvβ6 (human) (UniProt P06756); test: ELISA on plate-bound soluble αvβ6 in Mn (1 mM MnCl2) [panel C]
[19] = molecular target: αvβ6 on β6-transfected FDC-P1 cells (murine) (UniProt P43406); test: adhesion of labelled β6-transfected FDC-P1 cells to plate-bound LAP, % binding; blocked ligand LAP; remark: listed apart in the source

soluble recombinant human αvβ6 (human), sequence (P06756 31-992, chain 1 of 2): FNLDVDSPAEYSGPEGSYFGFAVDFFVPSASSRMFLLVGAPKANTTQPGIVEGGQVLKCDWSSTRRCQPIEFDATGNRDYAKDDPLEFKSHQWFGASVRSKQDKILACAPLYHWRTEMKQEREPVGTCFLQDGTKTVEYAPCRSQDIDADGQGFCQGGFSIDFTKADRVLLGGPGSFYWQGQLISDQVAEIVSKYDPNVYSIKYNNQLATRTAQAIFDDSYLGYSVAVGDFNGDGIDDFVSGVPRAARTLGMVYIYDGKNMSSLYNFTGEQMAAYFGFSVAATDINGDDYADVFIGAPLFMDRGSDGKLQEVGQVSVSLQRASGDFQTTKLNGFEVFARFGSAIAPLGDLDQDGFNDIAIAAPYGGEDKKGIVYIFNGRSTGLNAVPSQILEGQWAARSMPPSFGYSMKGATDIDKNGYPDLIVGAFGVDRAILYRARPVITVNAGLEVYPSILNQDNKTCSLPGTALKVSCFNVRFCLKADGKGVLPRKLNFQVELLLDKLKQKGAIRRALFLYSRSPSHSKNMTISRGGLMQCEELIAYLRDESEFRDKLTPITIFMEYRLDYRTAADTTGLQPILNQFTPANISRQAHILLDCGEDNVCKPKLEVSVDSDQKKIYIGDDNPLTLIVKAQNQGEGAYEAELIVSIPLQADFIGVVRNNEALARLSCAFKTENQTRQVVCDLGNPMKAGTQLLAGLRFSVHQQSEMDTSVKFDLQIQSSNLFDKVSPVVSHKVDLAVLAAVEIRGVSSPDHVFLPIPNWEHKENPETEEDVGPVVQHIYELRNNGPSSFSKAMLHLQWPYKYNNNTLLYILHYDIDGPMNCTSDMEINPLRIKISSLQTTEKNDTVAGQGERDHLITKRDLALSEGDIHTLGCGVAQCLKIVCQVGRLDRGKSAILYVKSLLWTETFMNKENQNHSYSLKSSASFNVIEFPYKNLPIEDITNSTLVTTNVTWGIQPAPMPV
soluble recombinant human αvβ6 (human), sequence (P18564 22-709, chain 2 of 2, further chain): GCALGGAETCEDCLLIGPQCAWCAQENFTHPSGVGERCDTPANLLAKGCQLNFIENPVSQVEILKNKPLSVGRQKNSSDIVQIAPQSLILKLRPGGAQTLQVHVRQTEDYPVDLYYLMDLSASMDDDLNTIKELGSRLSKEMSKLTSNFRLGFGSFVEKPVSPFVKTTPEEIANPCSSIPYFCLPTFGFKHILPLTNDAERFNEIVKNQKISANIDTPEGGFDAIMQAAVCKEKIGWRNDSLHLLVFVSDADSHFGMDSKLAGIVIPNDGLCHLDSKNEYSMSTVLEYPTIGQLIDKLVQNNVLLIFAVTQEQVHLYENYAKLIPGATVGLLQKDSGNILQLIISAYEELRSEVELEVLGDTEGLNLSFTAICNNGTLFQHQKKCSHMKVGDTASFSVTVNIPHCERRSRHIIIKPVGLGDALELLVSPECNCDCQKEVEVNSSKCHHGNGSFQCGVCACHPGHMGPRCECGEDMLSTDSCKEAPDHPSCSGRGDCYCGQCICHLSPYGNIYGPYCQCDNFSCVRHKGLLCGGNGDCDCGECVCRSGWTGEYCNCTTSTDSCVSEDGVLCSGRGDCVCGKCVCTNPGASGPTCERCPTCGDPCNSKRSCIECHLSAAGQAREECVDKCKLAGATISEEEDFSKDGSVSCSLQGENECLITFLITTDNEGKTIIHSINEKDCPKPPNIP

Substance: L230 (antibody)
- IC50 [1]: 0.229 µg/mL
- EC50 [2]: 0.0271 µg/mL
- EC50 (read off the curve) [3]: 0.01 µg/mL
- EC50 (read off the curve) [4]: 0.01 µg/mL
- EC50 (read off the curve) [5]: 0.01 µg/mL

Substance: 6.3G9 (antibody)
- Kd [6]: 0.0156 nM
- EC50 (read off the curve) [7]: 0.09 µg/mL
- IC50 (read off the curve) [8]: 0.04 µg/mL
- IC50 [1]: 0.271 µg/mL
- EC50 [2]: 0.0767 µg/mL
- EC50 (read off the curve) [9]: 0.09 µg/mL
- PAI-1 luciferase IC50 [10]: 0.375 µg/mL
- IC50 [11]: 0.017 µg/mL
- IC50 (read off the curve) [12]: 0.03 µg/mL
- EC50 (read off the curve) [13]: 0.09 µg/mL

Substance: 6.8G6 (antibody)
- IC50 [14]: 0.061 µg/mL
- EC50 (read off the curve) [15]: 0.02 µg/mL
- IC50 [1]: 0.169 µg/mL
- EC50 [2]: 0.0175 µg/mL
- Kd [16]: 0.0228 nM
- PAI-1 luciferase IC50 [10]: 0.312 µg/mL
- IC50 [11]: 0.023 µg/mL
- IC50 [17]: 0.101 µg/mL
- EC50 (read off the curve) [18]: 0.03 µg/mL
- IC50 [19]: 0.083 µg/mL
